Test results reported in patent US20110008345A1 (GlaxoSmithKline, published 2011).
Changes are numbered by the printed parent chain. Where two headings read alike, the source gives them in different places. Values belong to the binder of their own block, whether it stands above or below them.

How the values were obtained:
[1] = target: T1, recombinant E. coli-expressed human IL-13 (human, UniProt P35225 35-146); assay: SPR
T1 construct: made and purified at GSK; also called Interleukin-13; rhIL-13

[2] = target: T1, recombinant E. coli-expressed human …; assay: SPR exp 1
[3] = target: T2, recombinant E. coli-expressed human IL-4 (human, UniProt P05112 25-153); assay: SPR exp 1
T2 construct: made and purified at GSK; also called Interleukin-4; rhIL-4
T2 sequence: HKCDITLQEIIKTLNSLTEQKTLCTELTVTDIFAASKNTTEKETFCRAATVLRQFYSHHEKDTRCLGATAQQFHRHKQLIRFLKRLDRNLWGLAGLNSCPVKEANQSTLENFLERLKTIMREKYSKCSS

[4] = target: recombinant Sf21-expressed human IL-5 (human, UniProt P05113 20-134); assay: ELISA
[5] = target: T1, recombinant E. coli-expressed human …; assay: SPR; remark: listed apart in the source
[6] = target: T1, recombinant E. coli-expressed human …; assay: cell-based or functional assay
[7] = target: T1, recombinant E. coli-expressed human …; assay: ELISA, IL-13 binding to IL13Ralpha2/Fc
[8] = target: T1, recombinant E. coli-expressed human …; assay: SPR, purified
[9] = target: T1, recombinant E. coli-expressed human …; assay: SPR, no IL-4 bound
[10] = target: T3, recombinant E. coli-expressed cynomolgus IL-13 (cynomolgus, UniProt Q0PW92 21-132); assay: SPR
T3 construct: also called cyno IL-13

[11] = target: T1, recombinant E. coli-expressed human …; assay: SPR; remark: listed apart in the source
[12] = target: T3, recombinant E. coli-expressed …; assay: SPR; remark: listed apart in the source
[13] = target: T4, recombinant E. coli-expressed cynomolgus IL-4 (cynomolgus, UniProt P79339 25-153); assay: SPR
T4 construct: also called cyno IL-4
T4 sequence (looked up): T2 sequence with E26K, V29I, F33L

[14] = target: T1, recombinant E. coli-expressed human …; assay: SPR exp 2
[15] = target: T3, recombinant E. coli-expressed …; assay: SPR; remark: listed apart in the source
[16] = target: T1, recombinant E. coli-expressed human …; assay: SPR exp 1; remark: listed apart in the source
[17] = target: T1, recombinant E. coli-expressed human …; assay: SPR, purified; remark: listed apart in the source
[18] = target: T1, recombinant E. coli-expressed human …; assay: SPR exp 3
[19] = target: T1, recombinant E. coli-expressed human …; assay: SPR; remark: listed apart in the source
[20] = target: T1, recombinant E. coli-expressed human …; assay: SPR stoichiometry
[21] = target: T1, recombinant E. coli-expressed human …; assay: SPR exp 1; remark: listed apart in the source
[22] = target: T5, recombinant human IGF-1R-his tag (human, UniProt P08069 31-932); assay: ELISA
T5 construct: bought; also called rhIGF-1R

[23] = target: T6, recombinant human VEGF (human, UniProt P15692-4 27-191); assay: ELISA
T6 construct: also called VEGF165; hVEGF165

[24] = target: T1, recombinant E. coli-expressed human …; assay: SPR; remark: listed apart in the source
[25] = target: T2, recombinant E. coli-expressed human IL-4; assay: ELISA, IL-4 binding to IL4Ralpha-Fc
[26] = target: T2, recombinant E. coli-expressed human IL-4; assay: SPR
[27] = target: T7, Recombinant Human HGF R (c-MET)/Fc Chimera (human, UniProt P08581 25-932); assay: ELISA
T7 construct: bought; also called HGF receptor
T7 sequence (P08581 25-932 limits assumed, change not shown): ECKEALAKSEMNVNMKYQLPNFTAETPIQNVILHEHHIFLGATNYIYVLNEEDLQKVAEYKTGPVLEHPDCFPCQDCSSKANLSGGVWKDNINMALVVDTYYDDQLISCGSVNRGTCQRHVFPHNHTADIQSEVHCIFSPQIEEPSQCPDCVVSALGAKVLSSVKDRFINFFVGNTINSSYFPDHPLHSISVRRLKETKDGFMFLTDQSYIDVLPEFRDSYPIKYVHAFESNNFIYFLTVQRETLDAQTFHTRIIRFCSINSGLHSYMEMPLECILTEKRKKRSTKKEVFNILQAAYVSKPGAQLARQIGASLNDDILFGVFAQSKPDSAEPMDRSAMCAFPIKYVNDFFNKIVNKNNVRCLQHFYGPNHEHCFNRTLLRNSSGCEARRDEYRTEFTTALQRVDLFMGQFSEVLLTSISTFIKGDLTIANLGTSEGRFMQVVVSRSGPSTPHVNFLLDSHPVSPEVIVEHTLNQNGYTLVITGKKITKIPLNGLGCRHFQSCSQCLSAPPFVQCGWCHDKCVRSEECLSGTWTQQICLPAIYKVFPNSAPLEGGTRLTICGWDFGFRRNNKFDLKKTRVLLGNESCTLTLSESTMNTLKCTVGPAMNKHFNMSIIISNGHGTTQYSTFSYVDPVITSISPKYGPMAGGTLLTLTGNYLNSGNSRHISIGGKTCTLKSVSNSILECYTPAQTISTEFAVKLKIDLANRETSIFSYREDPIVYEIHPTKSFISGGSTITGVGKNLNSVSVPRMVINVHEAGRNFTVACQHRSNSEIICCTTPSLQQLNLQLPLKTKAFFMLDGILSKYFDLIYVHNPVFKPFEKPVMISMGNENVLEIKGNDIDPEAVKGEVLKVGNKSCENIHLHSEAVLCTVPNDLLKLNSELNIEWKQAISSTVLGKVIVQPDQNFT

[28] = target: T8, RNAse A (UniProt P61823 27-150); assay: ELISA
T8 sequence (looked up): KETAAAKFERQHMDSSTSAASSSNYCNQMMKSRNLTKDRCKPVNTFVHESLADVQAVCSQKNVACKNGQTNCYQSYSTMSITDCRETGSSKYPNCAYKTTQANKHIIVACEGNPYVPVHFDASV

[29] = target: T9, recombinant human IL-12 (human, UniProt P29459 23-219; P29460 23-328); assay: ELISA
T9 sequence (looked up) 1: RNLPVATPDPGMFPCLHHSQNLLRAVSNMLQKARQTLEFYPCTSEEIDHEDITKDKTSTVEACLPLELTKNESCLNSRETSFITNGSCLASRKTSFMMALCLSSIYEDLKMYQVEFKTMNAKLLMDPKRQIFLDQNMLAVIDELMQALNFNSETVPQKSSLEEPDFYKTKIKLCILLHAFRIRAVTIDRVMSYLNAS
T9 sequence (looked up) 2: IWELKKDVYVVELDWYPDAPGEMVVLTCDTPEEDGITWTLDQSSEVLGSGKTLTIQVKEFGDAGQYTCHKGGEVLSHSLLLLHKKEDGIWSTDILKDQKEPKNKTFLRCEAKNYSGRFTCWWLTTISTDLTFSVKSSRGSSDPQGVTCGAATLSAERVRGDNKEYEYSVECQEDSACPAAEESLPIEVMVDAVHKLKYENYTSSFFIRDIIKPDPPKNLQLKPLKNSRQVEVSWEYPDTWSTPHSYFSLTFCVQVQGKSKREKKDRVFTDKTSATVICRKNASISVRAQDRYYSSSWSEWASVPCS

[30] = target: recombinant E. coli-expressed human IL-18 (human, UniProt Q14116 37-193); assay: ELISA
[31] = target: recombinant human TNF-alpha (human, UniProt P01375 77-233); assay: ELISA
[32] = target: T10, HEL (Hen Egg Lysozyme) (hen, UniProt P00698 19-147); assay: ELISA
T10 construct: also called hen egg white lysozyme
T10 sequence (P00698 19-147): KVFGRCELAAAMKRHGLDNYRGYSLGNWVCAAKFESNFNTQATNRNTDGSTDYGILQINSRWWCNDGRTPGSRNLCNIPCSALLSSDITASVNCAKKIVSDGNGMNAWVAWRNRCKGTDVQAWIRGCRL

[33] = target: T2, recombinant E. coli-expressed human IL-4; assay: SPR; remark: listed apart in the source
[34] = target: T2, recombinant E. coli-expressed human IL-4; assay: cell-based or functional assay
[35] = target: T2, recombinant E. coli-expressed human IL-4; assay: cell-based or functional assay; remark: listed apart in the source
[36] = target: T4, recombinant E. coli-expressed …; assay: cell-based or functional assay
[37] = target: T2, recombinant E. coli-expressed human IL-4; assay: SPR, purified
[38] = target: T2, recombinant E. coli-expressed human IL-4; assay: SPR; remark: listed apart in the source
[39] = target: T2, recombinant E. coli-expressed human IL-4; assay: SPR exp 1; remark: listed apart in the source
[40] = target: T2, recombinant E. coli-expressed human IL-4; assay: SPR exp 2
[41] = target: T2, recombinant E. coli-expressed human IL-4; assay: SPR exp 2; remark: listed apart in the source
[42] = target: T2, recombinant E. coli-expressed human IL-4; assay: SPR, purified; remark: listed apart in the source
[43] = target: T2, recombinant E. coli-expressed human IL-4; assay: SPR exp 3
[44] = target: T2, recombinant E. coli-expressed human IL-4; assay: SPR; remark: listed apart in the source
[45] = target: T2, recombinant E. coli-expressed human IL-4; assay: SPR stoichiometry
[46] = target: T2, recombinant E. coli-expressed human IL-4; assay: SPR exp 1; remark: listed apart in the source
[47] = target: T2, recombinant E. coli-expressed human IL-4; assay: SPR exp 2; remark: listed apart in the source

Kd [1]: 0.41 nM | Kd [2]: 0.28 nM | binding result [3]: no binding (tested: 256 nM) | binding result [4]: no binding | Kd [5]: 0.38 nM | Mean IC50 (whole blood phospho-STAT6) [6]: 1.47 nM | IC50 [7]: 6.43 nM | Kd [8]: 0.41 nM | Kd [9]: 0.366 nM | koff [9]: 0.000368 s⁻¹ | kon [9]: 1.01e+06 M⁻¹ s⁻¹ | Kd [10]: 0.119 nM | koff [10]: 6.55e-05 s⁻¹ | kon [10]: 550000 M⁻¹ s⁻¹ | Kd [11]: 0.38 nM | Kd [12]: 0.222 nM | koff [12]: 0.000105 s⁻¹ | kon [12]: 474000 M⁻¹ s⁻¹ | binding result [13]: no binding | Kd [14]: 0.67 nM | koff [14]: 0.000611 s⁻¹ | Kd [15]: 0.171 nM | koff [15]: 8.22e-05 s⁻¹ | kon [15]: 479000 M⁻¹ s⁻¹ | Kd [16]: 0.57 nM | koff [16]: 0.00049 s⁻¹ | kon [16]: 860000 M⁻¹ s⁻¹ | Kd [17]: 0.43 nM | Kd [18]: 0.547 nM | Kd [19]: 0.377 nM | koff [19]: 0.000378 s⁻¹ | kon [19]: 1e+06 M⁻¹ s⁻¹ | Stoichiometry [20]: 1.8 | Kd [21]: 0.28 nM
B1: Anti-human IL-13 monoclonal antibody (also known as 586) (antibody, human IgG1, kappa)
heavy: not shown
light: DIVMTQSPLSLPVTPGEPASISCRSSQNIVHINGNTYLEWYLQKPGQSPRLLIYKISDRFSGVPDRFSGSGSGTDFTLKISRVEADDVGIYYCFQGSHVPWTFGQGTKLEIKRTVAAPSVFIFPPSDEQLKSGTASVVCLLNNFYPREAKVQWKVDNALQSGNSQESVTEQDSKDSTYSLSSTLTLSKADYEKHKVYACEVTHQGLSSPVTKSFNRGEC
notes: also called Anti-human IL-13 mAb; anti-IL13 mAb

binding result [22]: no binding | binding result [23]: no binding | Kd [24]: 0.44 nM | IC50 [25]: 36.2 nM | Kd [12]: 0.044 nM | koff [12]: 2.24e-05 s⁻¹ | kon [12]: 507000 M⁻¹ s⁻¹ | binding result [13]: binds | Kd [18]: 0.438 nM
B2: 586H-210 GS removed (bispecific antibody, human IgG1, kappa)
heavy: not shown
light: B1 light
notes: also called BPC1601

Kd [26]: 0.037 nM | Kd [3]: 0.0137 nM | binding result [27]: no binding | binding result [28]: no binding (tested: 2 ug/mL) | binding result [29]: no binding | binding result [23]: no binding | binding result [4]: no binding | binding result [30]: no binding | binding result [31]: no binding (tested: 1 ug/ml) | binding result [32]: no binding | Kd [33]: 0.02 nM | Mean IC50 (whole blood phospho-STAT6) [34]: 2.44 nM | Mean ND50 (TF-1) [35]: 1.36 nM | Mean ND50 (TF-1) [36]: 2.62 nM | Kd [37]: 0.037 nM | Kd [38]: 0.06 nM | koff [38]: 0.000123 s⁻¹ | kon [38]: 2.04e+06 M⁻¹ s⁻¹ | Kd [39]: 0.03 nM | koff [39]: 0.00016 s⁻¹ | kon [39]: 5.3e+06 M⁻¹ s⁻¹ | IC50 [25]: 3.45 nM | Kd [40]: 0.011 nM | Kd [41]: 0.06 nM | koff [41]: 0.000123 s⁻¹ | kon [41]: 2.04e+06 M⁻¹ s⁻¹ | binding result [11]: no binding | binding result [12]: no binding | Kd [13]: 0.046 nM | koff [13]: 0.000108 s⁻¹ | kon [13]: 2.34e+06 M⁻¹ s⁻¹ | Kd [42]: 0.03 nM | Kd [43]: 0.013 nM | Kd [44]: 0.00572 nM | koff [44]: 2.43e-05 s⁻¹ | kon [44]: 4.25e+06 M⁻¹ s⁻¹ | Stoichiometry [45]: 1.8 | Kd [46]: 0.0137 nM | Kd [47]: 0.011 nM
B3: Pascolizumab (Anti-human IL-4 monoclonal antibody) (antibody, human IgG1, kappa, V domains shown)
VH: QVTLRESGPALVKPTQTLTLTCTFSGFSLSTSGMGVSWIRQPPGKGLEWLAHIYWDDDKRYNPSLKSRLTISKDTSRNQVVLTMTNMDPVDTATYYCARRETVFYWYFDVWGRGTLVTVSS
VL: DIVLTQSPSSLSASVGDRVTITCKASQSVDYDGDSYMNWYQQKPGKAPKLLIYAASNLESGIPSRFSGSGSGTDFTFTISSLQPEDIATYYCQQSNEDPPTFGQGTKVEIKR
notes: also called anti-human IL4 mAb; IL-4 mAb
